assay: yeast display, Sf9 membrane polyspecificity reagent, FACS + sequencing; frameworks hold sequencing errors
Procedure, shortened: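 Nanobodies from a synthetic yeast display library (Saccharomyces cerevisiae BJ5465), induced 36–48 hours with galactose, were stained 1 hour at 4 °C with 10% biotinylated, detergent-solubilized Sf9 membrane reagent, enriched on streptavidin microbeads, then FACS-sorted. Anti-HA (expression) and streptavidin (reagent binding) fluorescence set low and high (top ~1%) gates. Polyreactivity labels come from the gate of origin. Genes were colony-PCR amplified, MiSeq 2 × 250 sequenced and filtered by CDR length.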

Row | Sequence | polyreactivity (PSR sort gate)
1 | QVQLVESGGGLVQAGGSLRLSCAASGRIFEYYAMGWYRQAPGKERELVAAINTGGNTYYADSVKGRFTLSRDNAKNTVYLQMNSLKPEDTAVYYCATYPIWYCGYLSGTDYDYWGQGTQVTVSS | low polyreactivity
2 | QVQLVESGGGLVQAGGSLRLSCAASGRIFFANAMGWYRQAPGKERELVAAISYSGTSTYYADSVKGRFTISRDNAKNSVYLQMNSLKPEDTAVYYCNAGRYIKMGDWGQGTQVTVSS | high polyreactivity
3 | QVQLVESGGGLVQAGGSLRLSCAASGRIFFGYAMGWYRQAPGKERELVASISRGGSTNYADSVKGRFTISRDNAKNTVYLEMNSLKPEDTAVYYCAASRRRWSQQQGYGYYYWGQGTQVTVSS | high polyreactivity
4 | QVQLVESGGGLVQAGGSLRLSCAASGRIFFKNAMGWYRQAPGKERELVAAITWSGGRTYYADSVKGRFTISRDNAKNTVYLQMNSLKPEDTAVYYCNALAPSPYDWGQGTQVTVSS | high polyreactivity
5 | QVQLVESGGGLVQAGGSLRLSCAASGRIFFKNTMGWYRQAPGNESELVAAITSSGSSTYYADSVKARFTISRDNSKNNVYLQMNSLKPEDTAVYYCNALTWDHSRTGVDYWGQGTQVTVSS | low polyreactivity
6 | QVQLVESGGGLVQAGGSLRLSCAASGRIFFLNAMGWYRQAPGKERELVATISWTGGSTYYADSVKGRFTISRDNAKNTVDLQMTSLKPEDTAGYYCAKDGTNWGHAFDSWGQGTEVTVSS | low polyreactivity
7 | QVQLVESGGGLVQAGGSLRLSCAASGRIFFNYAMGWYRQAPGKERELVAAITRSGGRTYYADSVKGRFTISRDNAKNTVYLQMNSLKPEDTAVYYCAADSGSRGSVAHEYWGQGTQVTVSS | high polyreactivity
8 | QVQLVESGGGLVQAGGSLRLSCAASGRIFFRNAMGWYRQAPGKERELVAVINTGGSTNYADSVKGRFTISRDNAKNTVYLQMNSLKPEDTAVYYCAVDRASRRTYNQYGYWGQGTQVTVSS | high polyreactivity
9 | QVQLVESGGGLVQAGGSLRLSCAASGRIFFRNTMGWYRQAPGKERELVAAISGSGGSTYYADSVKGRFTISRDNAKNTVYLQMNSLKPEDTAVYYCAKRWLYPISYDYWGQGTQVTVSS | high polyreactivity
10 | QVQLVESGGGLVQAGGSLRLSCAASGRIFFRYVMGWYRPAPGKERELVATSTRSGGTTYYADSVKGRFTISRDNAKNTVYLQMNSLKPEDTAVYYCATDYTYHRVGPLYGFWGQGTQLTVSS | low polyreactivity
11 | QVQLVESGGGLVQAGGSLRLSCAASGRIFFWYVMGWYRQAPGKERELVAAISSGGRTYYADSVKGRFTISRDNAKNTVYLQMNSLKPEDTAVYYCNVEEYHVRADIGYSNYGYWGQGTQVTVSS | low polyreactivity
12 | QVQLVESGGGLVQAGGSLRLSCAASGRIFFYYAMGWYRQAPGKERELVATISYSGGCTYYADSVKGRFTISRDNAKNTVYLQMNSLKPEETAVYYCNARWGTPYYIQDFDYWGQGTQVTVSS | low polyreactivity
13 | QVQLVESGGGLVQAGGSLRLSCAASGRIFGAYAMGWYRQAPGKEREFVAAITWRGGSTYYADSVKGRFTISRDNAKNTVYLQMNSLKPEDTAVYYCAADQFTGSVWAYYYWGQGTQVTVSS | high polyreactivity
14 | QVQLVESGGGLVQAGGSLRLSCAASGRIFGAYAMGWYRQAPGKERELVAAITFRGGSTYYADSVKGRFTISRDNAKNTVYLQMNSLKPEDTAVYYCAADILDYLHIYDYWGQGTQVTVSS | low polyreactivity
15 | QVQLVESGGGLVQAGGSLRLSCAASGRIFGEYALGWYRQDPGKERELVARISRSGGSTYADSVKGRFTISRDNAKNTVYFQMNSLKPEVTAVYYCNADAYGTPEFTSYAVRYDYWGQGTQVTVSS | low polyreactivity
16 | QVQLVESGGGLVQAGGSLRLSCAASGRIFGFNAMGWYRQAPGKERELVAGITDSSGRTNYADSVKGRFTISRDNAKNTVYLEMNSLKPEDTAVLYCAKDGLVITAVGSDLWGHGTQVTVSS | low polyreactivity

Source: the nanobody polyreactivity screen of Harvey et al. (2022)
